Assays:
Conditions in all cases: tags: C-terminal His6
[1] = biological target: T1, N123 (DNA-binding domain of Sleeping Beauty transposase) (synthetic (reconstructed salmonid)); test: EMSA; binding abolished
T1 chain: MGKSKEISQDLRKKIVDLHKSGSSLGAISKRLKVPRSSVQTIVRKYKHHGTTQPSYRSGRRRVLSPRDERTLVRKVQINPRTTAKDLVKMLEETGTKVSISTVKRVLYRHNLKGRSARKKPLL
From the text: (§1) DNA fragments with one to three DRs were obtained by digestion of the appropriate transposon with HindIII and SacI. To determine the core sequence for SB binding, DNA fragments with mutations in the outer or inner DR were made by PCR followed by enzyme digestion. DNA fragments were end-labeled with [α³²P]-dCTP. Nucleoprotein complexes were formed in a buffer as described by Ivics et al., Cell, 1997;91:501-510. Reactions contained 100 picogram (pg) DNA probes, 1 microgram (μg) poly[dI:dC], and 1 microliter (μl) N123 in a total volume of 20 μl. After a 60 minutes incubation at 30° C., […] of loading dye containing 50% glycerol and bromophenol blue were added and the samples were loaded onto 4%-6% polyacrylamide gels, which were run for 2-3 hours at 120 volts. 4% gels were used for EMSA assays with triple-DR probes while 6% gels were used with double-DR probes. Competitor concentrations were as described in Ivics et al., Cell, 1997;91:501-510. Dried gels were exposed to the phosphor for 6-9 hours and imaged on a Storm 840 Imager (Molecular Dynamics).

[2] = biological target: T1, N123 (DNA-binding domain of Sleeping …); test: competition; weaker competitor than Li
From the text: as §1
(§2) The initial step of SB transposition involves the specific binding of transposase to both ITRs of SB transposon. Two DRs in each ITR are required because deletion of one or the both severely reduces transposition (Izsvák et al., J. Mol. Biol., 2000;302:93-102). […]

[3] = biological target: T1, N123 (DNA-binding domain of Sleeping …); test: EMSA; binding not affected
From the text: as §1

[4] = biological target: T1, N123 (DNA-binding domain of Sleeping …); test: EMSA; still binds
From the text: as §1

[5] = biological target: T1, N123 (DNA-binding domain of Sleeping …); test: competition; binds more tightly than Lo
From the text: as §1, §2

B1: Lo(S10-12) (dsDNA)
DNA 1: TACAGTTGAAGAACGAAGTTTACATACACTTAAG
DNA 2: CTTAAGTGTATGTAAACTTCGTTCTTCAACTGTA
B1: no binding [1].

B2: Lo (dsDNA)
DNA 1: TACAGTTGAAGTCGGAAGTTTACATACACTTAAG
DNA 2: CTTAAGTGTATGTAAACTTCCGACTTCAACTGTA
B2: binds [2].

B3: Lo(S3) (dsDNA)
DNA 1: TACAATTGAAGTCGGAAGTTTACATACACTTAAG
DNA 2: CTTAAGTGTATGTAAACTTCCGACTTCAATTGTA
B3: binds [3].

B4: Lo(S1,3) (dsDNA)
DNA 1: TAAAATTGAAGTCGGAAGTTTACATACACTTAAG
DNA 2: CTTAAGTGTATGTAAACTTCCGACTTCAATTTTA
B4: binds [3].

B5: Lo(S27-29) (dsDNA)
DNA 1: TACAGTTGAAGTCGGAAGTTTACATACATGGAAG
DNA 2: CTTCCATGTATGTAAACTTCCGACTTCAACTGTA
B5: no binding [1].

B6: Lo(S28-30) (dsDNA)
DNA 1: TACAGTTGAAGTCGGAAGTTTACATACACGGGAG
DNA 2: CTCCCGTGTATGTAAACTTCCGACTTCAACTGTA
B6: binds [3].

B7: Lo(S7-9) (dsDNA)
DNA 1: TACAGTTGCCCTCGGAAGTTTACATACACTTAAG
DNA 2: CTTAAGTGTATGTAAACTTCCGAGGGCAACTGTA
B7: binds [3].

B8: Lo(S4-6) (dsDNA)
DNA 1: TACAGCCCAAGTCGGAAGTTTACATACACTTAAG
DNA 2: CTTAAGTGTATGTAAACTTCCGACTTGGGCTGTA
B8: binds [3].

B9: Lo(delta8-11) (dsDNA)
DNA 1: TACAGTTGAGGAAGTTTACATACACTTAAG
DNA 2: CTTAAGTGTATGTAAACTTCCTCAACTGTA
B9: no binding [1].

B10: Li/Lo(H) (dsDNA)
DNA 1: TCCAGTGGGTCAGAAGTTTACATACACTTAAG
DNA 2: CTTAAGTGTATGTAAACTTCTGACCCACTGGA
modifications: [none]
B10: binds [4].

B11: Li (dsDNA)
DNA 1: TCCAGTGGGTCAGAAGTTTACATACACTAAGT
DNA 2: ACTTAGTGTATGTAAACTTCTGACCCACTGGA
B11: binds [5].

Reference: patent US20040077572, “Transposon system and methods of use” (Regents of the University of Minnesota, published 2004)
